These results are taken from the DeepSol protein solubility set.

This series in a line: soluble on expression in E. coli; label from the status in PepcDB or PDB records.
In the case of “MAHHHHHHMVKETGLYDELGISPDATEPQIRSAYRRKALQYHPDKNSGDPAAAEKFKKVAEAYEILSDAERRKQYDTFGRNGPGGAAGGSGGVPGGGFGSSFGPGTDPMDIFSSFFGFASGGGPGASRQQRPAKPSFILVVLQCSLEELYCGTVKVLQVRRRRLCPSCHGHGTSSGRPSPVCPQCKGNKTVTKALNFGGLTAYQQCRCDHCEGLGKLPIRLPCARCGPVYDAHQRAPLSGTRKPDPLPRGVVVDEKMIKVSIEPGTEDSDALNYVGQGDELPGFGAVGDVLVVIEQLPHPHYHRLNSTDLLLSNCRVPLGCLFRDAFSIPIELLDGRVLRLATPLREGNVPHFLFDSQHVFVVDGEGMPLKGRKGGGAAADANHDDSGAADDVAYRKKGKLYLCVNVVFPSSLTPAQVDIIAKALGGDHERDPAATGEDAGRVVTLQPHHSPAPSWYTVDTEGNAWYQPNGPATAKKKRKATSTTA”, the “soluble on expression in E. coli” value is on record as “not soluble”.
Turning to “MTPTHPTVTELLLPLSEIDDRGVYFEDSFTSWRDHIRHGAAIAAALRERLDPARPPHVGVLLQNTPFFSATLVAGALSGIVPVGLNPVRRGAALAGDIAKADCQLVLTGSGSAEVPADVEHINVDSPEWTDEVAAHRDTEVRFRSADLADLFMLIFTSGTSGDPKAVKCSHRKVAIAGVTITQRFSLGRDDVCYVSMPLFHSNAVLVGWAVAAACQGSMALRRKFSASQFLADVRRYGATYANYVGKPLSYVLATPELPDDADNPLRAVYGNEGVPGDIDRFGRRFGCVVMDGFGSTEGGVAITRTLDTPAGALGPLPGGIQIVDPDTGEPCPTGVVGELVNTAGPGGFEGYYNDEAAEAERMAGGVYHSGDLAYRDDAGYAYFAGRLGDWMRVDGENLGTAPIERVLMRYPDATEVAVYPVPDPVVGDQVMAALVLAPGTKFDADKFRAFLTEQPDLGHKQWPSYVRVSAGLPRTMTFKVIKRQLSAEGVACADPVWPIRR”, the “soluble on expression in E. coli” value was “soluble”.
Next, “MGSDKIHHHHHHMAGYNTYVVGKWHVGTKSVPEDYGIKGHNFDGYGYPGSGVYKNLVFNQPPTHSNRYKEWLEEKGYEIPEVSRAYFGDNPHLRVQELCGLLSGAKDQTIPYFIIDEAKKYIQESLDEGKPFFAWINFWGPHTPCIVPEPYYSMYRKEDVVLDKSFFTPLEGKPDHFRTISKMWGMWEASEDHWKEVITKFWGYITLIEDDNLVYLHDLTSTVFDLANQKVPESFEGQSVLPIMRQHQDNQRKGVLGQLAGHFVYFEQRMWRRKDYKLVFNATDVCELYNIRNDPEEMHNLFYDPQYNRIKKEMLEEMRAEMKRLNDPLENWVYRIIDEI”: “not soluble”.
To “MTDALEQSVLALEGTVSVLKDSVESLKCANEPSTNLASTMLQTKRVFRLVPEYDVERSKLDLIEEVEPLVRTLGDKLRKSMGRMQRELDTLQQTYELNDLRLKKNISMDDDDALNSPDMGQEYEGRDADDVVMMASSTNEELEELKKLKEKKKQLENKLEILKQK” belongs “soluble”; to “MTLLASLRDWLKAQQLDAVLLSSRQNKQPHLGISTGSGYVVISRESAHILVDSRYYVEVEARAQGYQLHLLDATNTLTTIVNQIIADEQLQTLGFEGQQVSWETAHRWQSELNAKLVSATPDVLRQIKTPEEVEKIRLACGIADRGAEHIRRFIQAGMSEREIAAELEWFMRQQGAEKASFDTIVASGWRGALPHGKASDKIVAAGEFVTLDFGALYQGYCSDMTRTLLVNGEGVSAESHLLFNVYQIVLQAQLAAISAIRPGVRCQQVDDAARRVITEAGYGDYFGHNTGHAIGIEVHEDPRFSPRDTTTLQPGMLLTVEPGIYLPGQGGVRIEDVVLVTPQGAEVLYAMPKTVLLTGEA”, “soluble”.
Consider “MAGVKYPGQDPVDLDIYQSSHMVDYQPYRKHKYSRVTPQEQAKLDAQLRDKEFYRPIPNPNPKLTDGYPAFKRPHMTAKDLGLPGFFPSQEHEATREDERKFTSTCHFTYPASHDLHLAQGDPNQVLQSADFPCLVDPKHQPAAEMAKGYLLLPGCPCLHCHIVKVPILNRWGPLMPFYQ”, for which the “soluble on expression in E. coli” value was “not soluble”.
Next, “GPGSMVHRQDGAVVHCSRETGRLSAIIAPSILASDFAQLLSECQSVLSPEGGAADWLHVDVMDGHFVPNISIGMCVVQSLRSHLQDVFLDVHCMVSDPDRWVEEMAKAGATQMTFHVEAVADPKAVARHIRAAGMLCGVALKPKTPVSSVLNLVEEQLIDMVLVMTVEPGFGGQSFMQDMMPKVEELRARFPCLNIQVDGGIGPGTIDAPARAGANVIVAGTSIFRADSRKEATESMRRVVQGYLGSTTS”: “soluble”; “MPKIPITLITGFLGSGKTSFLSEYLNQTDHQGVALIINEIGQAALDQRILSVQYCGEKMLYLNAGCVCCNKRLDLVESLKATLNNYEWHGEILRRIIIETTGLANPAPILWTILSDTFLGVHFEIQSVVACVDALNAREHLTNNEAKEQIVFADSVLLTKTDLQNDSAALTKLKERIQALNPSAEIFDKRAIDYESLFSRKNRARNFMPRMPKDSHSQGFETLSINFEGTMEWSAFGIWLSLLLHQYGTQILRIKGIIDIGSGFLVSINGVMHVIYPPKHILKDQNGSNLVFIMRHLEREKILNSLKGFKDFLGIKGFETQLEHHHHHH”: “soluble”; “LHPEPQSQHELGNVFLKFKDKFCVYEEYCSNHEKALRLLVELNKIPTVRAFLLSCMLLGGRKTTDIPLEGYLLSPIQRICKYPLLLKELAKRTPGKHPDHPAVQSALQAMKTVCSNINETKRQMEKLEALEQLQSHIEGWEGSNLTDICTQLLLQGTLLKISAGNIQERAFFLFDNLLVYCKRKSRVTGSKKSTKRTKSINGSLYIFRGRINTEVMEVENVEDGTADYHSNGYTVTNGWKIHNTAKNKWFVCMAKTAEEKQKWLDAIIREREQRESLKLGMERDAYVMIAEKGEKLYHMMMNKKVNLIKDRRRKLSTVPKCFLGNEFVAWLLEIGEISKTEEGVNLGQALLENGIIHHVSDKHQFKNEQVMYRFRYDDGTYKARSELEDIMSKGVRLYCRLHSLYTPVIKDRDYHLKTYKSVLPGSKLVDWLLAQGDCQTREEAVALGVGLCNNGFMHHVLEKSEFRDESQYFRFHADEEMEGTSSKNKQLRNDFKLVENILAKRLLILPQEEDYGFDIEEKNKAVVVKSVQRGSLAEVAGLQVGRKIYSINEDLVFLRPFSEVESILNQSFCSRRPLRLLVATKAKEIIKIPDQPDTLCFQIRGAAPPYVYAVGRGSEAMAAGLCAGQCILKVNGSNVMNDGAPEVLEHFQAFRSRREEALGLYQWIYHTHEDAQEARASQEASTEDPSGEQAQEEDQADSAFPLLSLGPRLSLCEDSPMVTLTVDNVHLEHGVVYEYVSTAGVRCHVLEKIVEPRGCFGLTAKILEAFAANDSVFVENCRRLMALSSAIVTMPHFEFRNICDTKLESIGQRIACYQEFAAQLKSRVSPPFKQAPLEPHPLCGLDFCPTNCHINLMEVSYPKTTPSVGRSFSIRFGRKPSLIGLDPEQGHLNPMSYTQHCITTMAAPSWKCLPAAEGDPQGQGLHDGSFGPASGTLGQEDRGLSFLLKQEDREIQDAYLQLFTKLDVALKEMKQYVTQINRLLSTITEPTSGGSCDTSLAEEASSLPLVSEESEMDRSDHGGIKKVCFKVAEEDQEDSGHDTMSYRDSYSECNSNRDSVLSYTSVRSNSSYLGSDEMGSGDELPCDMRIPSDKQDKLHGCLEHLFNQVDSINALLKGPVMSRAFEETKHFPMNHSLQAIHPFTHSATHAPINPSVHPPLHPTTHLPSIHPPTHPPTHPSIYPPTHPSIHLLVCPSIHPSLLPSVCPLFHPSTHSFIIYLSIHASVHPVNNFPEPACARPCTGHWRP”: “soluble”.
To “MASIKLYFDKRVNRKDGKFPLKINVTHKRQQALINLGVLLSPDQWDSTKGKVINGPNKSFLNGYISQRVHCAETELLNLRIAGKLDLMTGKQFKEHLQRILLRGKLEEKQEETGCSFVQYYTRFVEGKKNPQTKAVYQYTLDRICRFVDVPDKFRFEDVTYAWLKSFEIHLSETSKVNSISIHMRNIRAVFNDALNTETISCYPFRRFKIKQEATAKRALTPEELVTLRDYPCEEHQKQYVDIFMLIFYLVGINTVDLCRLEKIRNGRIEYRRAKTKKIYNIKVEPEAAEIIERYKGSKYLLNILERYKNYKDYAHRLNENLQEIGSVELVEKVINGKRRRVKKRFPLFPELTVYWARHTWATIAHKIGVSKDVISLALGHEFGCKTTSIYIDYDMEKVDKANRQVLDYLENLK” belongs “not soluble”.
To “MSATPPTTPAPTAAASAGKGLHSRAYNGLIKACDKYVPPKMRPLWMHPAGPKTIFFWAPIVKWSLVIAGLSDLTRPADKISPNGCLALGATNLIWTRYSLVIIPKNYSLFAVNLFVSLTQLFQLGRYYNYQWEQSRLEKNGEQCPAIEASLLEHHHHHH” belongs “not soluble”; to “MSLQADFNRPVLAVDTGTSRLSLALRADGETRLFHQEVGSRQSELILPEIRTLFRDAGITAADLGAVVYAQGPGAFTGLRIGIGVAQGLATPFDTPLIGVPSLDAAASLPPPQSCILAATDARMGEVFYAWFDTLNCHRLSDYQVGRAADIRLPEGCAFSDGIGSAFALEEAPPFSGRPDMPTAADFLALAAKGGYPAVHAAHAGLLYVRNKIALTAKEQAERRAEGHHHHHH”, “soluble”.
In the case of “MGMTPAQEVISYLINAAIGVSSTSSRPFRDAPPGCPDTLLVQCVKWFFRNGDFSNFYEDIKYLVKGKSLAGFVNSHLMVCPELIRIIVENADNKSRRVKFLIKKDEFAICVGRGRLITFPFTKDMEEPACILAEYTELLFSFPHYDIEYSFEGSYGLSRNMDLTETHIMLLSKLTPSMFAEKARPRRVRERNGRLAVRMSRISWNRSGLYYNAIIQFFESLRGTVITQGEQPLCEKSVTYQEMLKHTLAHPGVHQLDSRPNFQWKISMRKTRKND”, the “soluble on expression in E. coli” value is “not soluble”.
To “MVHMSWFRRRRKSFFDLLEDIFREFEEEFRELEEEFEKLASRVQSRGEEFGKGPYIYGVRITIGPDGVPKVEEFGNIRMARGRPQIREEMEPLVDVIERDDEVWIVADIPGANKDKIKVRATEDKVVIKAENGKKYYKEVELPAKVDPKSAKASYRNGVLEIKLKKIKPAEEGTEVKVE” belongs “soluble”; to “MGSDKIHHHHHHMIVERVEEYLDRIEKINKDINALIEVKPEKVLEEAKKLEKDEKAKKKPLYGKIIVVKANINVEGYTISCASKTLENYIAPYDATVIEKIKENGGLIIGIANMDEFACGSSGETSYFGPTKNPRAKDRIPGGSSSGSAAAVSADLCDMALGSDTGGSIRNPASHCGVVGFKPSYGVVSRYGLCDLAMSFDQIGPLTKTAEDALLLTNIIKGKDLRDTTTVETKPFEKKDIKGFKVGVVKEFMDVADEKIRDKVEKAIEVFKDLGCEIVELSYKYVDLALPTYYLINYVEFFSSTRRYDGRRYGYKIEEVCGEEVLRRIMIGSMISQKEYSGKYYKNALKARNLMRNEMIKIMKDVDIIVGATVPKLPHKLGEKLTPMEMYSYDVLTVPANICGLCAGVVPCGDINGIPVGLQIQGKPFEDEKVLSAMIAFEKAME”, “not soluble”; to “MEAVVVEREAKGMKEIAIQEKDLTLQWRGNTGKLVKVRLKNTRAMEMWYNKQITEENIQEITTLNIIKNGKSLALEVYPEKSIYVKPNLGRINVPVFFIKTPINRGVFEEIFGETLKA”, “soluble”.
For the sequence “MHKIRSHSKYIIPRLNKIVEEGDADAVGFEFPVESFKFLE”, the “soluble on expression in E. coli” value is listed as “not soluble”.
